From patent US20230212549A1, “COMPOUNDS COMPRISING A […] LIGAND AND USE THEREOF” (priority 2021, published 2023)
Values belong to the binder of their own block, whether it stands above or below them. Bridge positions count the residues as written; N and C are the ends.

Columns and labels:
Experiment in all cases: radioligand displacement (agonist radioligand), 10 µM
BZD (central) = molecular target: BZD (central)
[1] = molecular target: 5-HT2B (h) (human), P41595; conditions: remark: other sources report otherwise
5-HT2B (h) (human), P41595, sequence (P41595 whole entry): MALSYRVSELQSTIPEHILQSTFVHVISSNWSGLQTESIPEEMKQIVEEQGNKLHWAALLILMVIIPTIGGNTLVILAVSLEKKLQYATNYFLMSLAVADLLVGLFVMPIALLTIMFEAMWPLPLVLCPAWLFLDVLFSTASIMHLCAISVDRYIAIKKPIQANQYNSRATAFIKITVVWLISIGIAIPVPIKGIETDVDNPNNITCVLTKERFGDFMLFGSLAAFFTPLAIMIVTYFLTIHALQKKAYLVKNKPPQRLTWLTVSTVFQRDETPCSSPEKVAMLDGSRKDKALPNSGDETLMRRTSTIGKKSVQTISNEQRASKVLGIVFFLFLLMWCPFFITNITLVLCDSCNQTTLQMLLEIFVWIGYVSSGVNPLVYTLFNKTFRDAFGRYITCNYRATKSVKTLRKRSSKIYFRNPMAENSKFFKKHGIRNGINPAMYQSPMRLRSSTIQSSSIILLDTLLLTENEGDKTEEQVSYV

[2] = molecular target: mu (MOP) (h) (human), P35372; conditions: remark: other sources report otherwise
mu (MOP) (h) (human), P35372, sequence (P35372 whole entry): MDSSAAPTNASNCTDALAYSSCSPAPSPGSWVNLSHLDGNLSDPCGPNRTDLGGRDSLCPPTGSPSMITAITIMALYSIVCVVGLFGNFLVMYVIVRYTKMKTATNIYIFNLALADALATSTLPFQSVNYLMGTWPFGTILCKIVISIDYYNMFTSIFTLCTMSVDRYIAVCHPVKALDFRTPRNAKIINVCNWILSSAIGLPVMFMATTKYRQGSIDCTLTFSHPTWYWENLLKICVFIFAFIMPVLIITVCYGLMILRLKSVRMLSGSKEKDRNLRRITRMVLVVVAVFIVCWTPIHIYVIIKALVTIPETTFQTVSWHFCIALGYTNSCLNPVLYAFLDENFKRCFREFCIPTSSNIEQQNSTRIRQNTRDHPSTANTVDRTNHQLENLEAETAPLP

D2S (h) (human), P14416 = molecular target: T1, D2S (h) (human), P14416
T1 chain: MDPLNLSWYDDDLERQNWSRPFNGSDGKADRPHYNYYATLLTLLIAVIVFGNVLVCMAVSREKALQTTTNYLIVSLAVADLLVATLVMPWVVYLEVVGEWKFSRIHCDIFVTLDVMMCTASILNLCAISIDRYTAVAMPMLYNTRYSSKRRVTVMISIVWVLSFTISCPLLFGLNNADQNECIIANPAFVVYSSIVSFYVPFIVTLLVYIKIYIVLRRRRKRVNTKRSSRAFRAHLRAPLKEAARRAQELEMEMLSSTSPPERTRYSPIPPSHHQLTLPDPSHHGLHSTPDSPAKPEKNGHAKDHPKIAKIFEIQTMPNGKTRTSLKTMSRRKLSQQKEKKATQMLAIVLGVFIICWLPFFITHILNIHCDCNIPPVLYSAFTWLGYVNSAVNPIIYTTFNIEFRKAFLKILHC

ETA (h) (human), P25101 = molecular target: T2, ETA (h) (human), P25101; conditions: remark: other sources report otherwise
T2 chain: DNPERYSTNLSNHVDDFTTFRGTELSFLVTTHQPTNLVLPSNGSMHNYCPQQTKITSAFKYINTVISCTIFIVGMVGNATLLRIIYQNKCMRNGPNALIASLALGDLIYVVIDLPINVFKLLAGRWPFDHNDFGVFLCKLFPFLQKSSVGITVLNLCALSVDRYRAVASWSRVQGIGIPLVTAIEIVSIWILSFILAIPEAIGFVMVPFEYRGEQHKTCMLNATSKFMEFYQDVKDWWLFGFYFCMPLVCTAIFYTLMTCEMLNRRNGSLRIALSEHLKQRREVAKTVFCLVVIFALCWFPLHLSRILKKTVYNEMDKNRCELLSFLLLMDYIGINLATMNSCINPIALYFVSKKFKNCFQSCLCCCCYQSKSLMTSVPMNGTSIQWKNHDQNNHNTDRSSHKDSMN

CB2 (h) (human), P34972 = conditions: remark: other sources report otherwise
CB2 (h) (human), P34972, sequence (P34972 whole entry): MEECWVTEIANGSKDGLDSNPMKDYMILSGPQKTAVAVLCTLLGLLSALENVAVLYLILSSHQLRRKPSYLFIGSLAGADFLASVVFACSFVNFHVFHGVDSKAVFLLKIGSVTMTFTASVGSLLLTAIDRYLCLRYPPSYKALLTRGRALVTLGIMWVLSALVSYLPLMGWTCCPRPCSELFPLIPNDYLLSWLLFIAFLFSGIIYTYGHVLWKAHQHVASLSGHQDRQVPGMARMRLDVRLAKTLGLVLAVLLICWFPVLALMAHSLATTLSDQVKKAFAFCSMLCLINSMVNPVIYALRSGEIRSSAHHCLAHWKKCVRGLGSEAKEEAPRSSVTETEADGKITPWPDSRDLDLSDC

[3] = molecular target: 5-HT2A (h) (human), P28223; conditions: remark: other sources report otherwise
5-HT2A (h) (human), P28223, sequence (P28223 whole entry): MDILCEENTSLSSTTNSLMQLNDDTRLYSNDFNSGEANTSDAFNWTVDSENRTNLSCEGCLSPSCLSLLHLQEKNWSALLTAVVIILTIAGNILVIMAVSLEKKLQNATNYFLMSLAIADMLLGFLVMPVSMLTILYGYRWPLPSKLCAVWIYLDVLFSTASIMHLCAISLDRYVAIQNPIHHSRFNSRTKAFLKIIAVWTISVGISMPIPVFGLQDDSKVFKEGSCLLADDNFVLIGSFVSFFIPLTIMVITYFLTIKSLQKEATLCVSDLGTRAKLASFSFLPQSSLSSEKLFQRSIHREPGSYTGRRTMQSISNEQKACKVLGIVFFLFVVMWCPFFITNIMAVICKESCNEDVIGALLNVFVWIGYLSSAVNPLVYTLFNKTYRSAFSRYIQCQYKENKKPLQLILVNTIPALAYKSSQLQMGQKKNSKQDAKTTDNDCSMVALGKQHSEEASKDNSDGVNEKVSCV

[4] = molecular target: T3, CCK1 (CCKA) (h) (human), P32238; conditions: remark: other sources report otherwise
T3 chain: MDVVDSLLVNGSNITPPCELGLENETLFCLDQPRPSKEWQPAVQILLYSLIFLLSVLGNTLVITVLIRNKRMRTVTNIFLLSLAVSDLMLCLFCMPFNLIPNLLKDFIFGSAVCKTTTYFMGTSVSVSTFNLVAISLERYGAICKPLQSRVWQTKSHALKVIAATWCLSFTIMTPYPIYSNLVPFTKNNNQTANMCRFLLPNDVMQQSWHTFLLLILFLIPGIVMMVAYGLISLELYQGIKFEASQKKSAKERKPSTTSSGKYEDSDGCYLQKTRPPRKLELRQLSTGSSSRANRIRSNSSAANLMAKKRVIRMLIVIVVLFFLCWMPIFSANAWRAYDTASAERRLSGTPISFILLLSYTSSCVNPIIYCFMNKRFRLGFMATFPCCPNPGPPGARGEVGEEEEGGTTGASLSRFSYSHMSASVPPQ

A2A (h) (human), P29274 = molecular target: T4, A2A (h) (human), P29274; conditions: remark: other sources report otherwise
T4 chain: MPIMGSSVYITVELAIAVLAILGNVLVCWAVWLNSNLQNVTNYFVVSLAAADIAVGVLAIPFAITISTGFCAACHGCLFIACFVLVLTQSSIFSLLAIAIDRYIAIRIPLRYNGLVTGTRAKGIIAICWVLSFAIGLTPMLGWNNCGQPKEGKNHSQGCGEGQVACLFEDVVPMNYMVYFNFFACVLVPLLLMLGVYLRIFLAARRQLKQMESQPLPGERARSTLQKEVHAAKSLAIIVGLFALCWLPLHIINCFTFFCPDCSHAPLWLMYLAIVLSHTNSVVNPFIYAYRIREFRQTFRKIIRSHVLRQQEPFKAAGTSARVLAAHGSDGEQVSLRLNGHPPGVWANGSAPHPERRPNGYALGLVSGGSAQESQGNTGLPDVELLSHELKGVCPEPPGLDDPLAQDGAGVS

V1a (h) (human), P37288 = conditions: remark: other sources report otherwise
V1a (h) (human), P37288, sequence (P37288 whole entry): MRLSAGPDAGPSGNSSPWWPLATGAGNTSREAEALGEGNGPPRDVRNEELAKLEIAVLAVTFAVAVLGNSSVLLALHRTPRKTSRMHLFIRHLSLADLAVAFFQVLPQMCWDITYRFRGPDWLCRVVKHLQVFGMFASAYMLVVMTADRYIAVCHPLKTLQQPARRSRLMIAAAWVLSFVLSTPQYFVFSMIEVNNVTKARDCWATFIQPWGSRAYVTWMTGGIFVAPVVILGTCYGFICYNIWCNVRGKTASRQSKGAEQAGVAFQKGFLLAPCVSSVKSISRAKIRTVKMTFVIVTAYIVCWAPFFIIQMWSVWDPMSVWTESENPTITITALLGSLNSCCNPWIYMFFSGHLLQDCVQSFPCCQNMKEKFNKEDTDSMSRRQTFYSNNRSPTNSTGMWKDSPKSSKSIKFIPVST

GR (h) (human), P04150 = molecular target: T5, GR (h) (human), P04150; conditions: remark: other sources report otherwise
T5 chain: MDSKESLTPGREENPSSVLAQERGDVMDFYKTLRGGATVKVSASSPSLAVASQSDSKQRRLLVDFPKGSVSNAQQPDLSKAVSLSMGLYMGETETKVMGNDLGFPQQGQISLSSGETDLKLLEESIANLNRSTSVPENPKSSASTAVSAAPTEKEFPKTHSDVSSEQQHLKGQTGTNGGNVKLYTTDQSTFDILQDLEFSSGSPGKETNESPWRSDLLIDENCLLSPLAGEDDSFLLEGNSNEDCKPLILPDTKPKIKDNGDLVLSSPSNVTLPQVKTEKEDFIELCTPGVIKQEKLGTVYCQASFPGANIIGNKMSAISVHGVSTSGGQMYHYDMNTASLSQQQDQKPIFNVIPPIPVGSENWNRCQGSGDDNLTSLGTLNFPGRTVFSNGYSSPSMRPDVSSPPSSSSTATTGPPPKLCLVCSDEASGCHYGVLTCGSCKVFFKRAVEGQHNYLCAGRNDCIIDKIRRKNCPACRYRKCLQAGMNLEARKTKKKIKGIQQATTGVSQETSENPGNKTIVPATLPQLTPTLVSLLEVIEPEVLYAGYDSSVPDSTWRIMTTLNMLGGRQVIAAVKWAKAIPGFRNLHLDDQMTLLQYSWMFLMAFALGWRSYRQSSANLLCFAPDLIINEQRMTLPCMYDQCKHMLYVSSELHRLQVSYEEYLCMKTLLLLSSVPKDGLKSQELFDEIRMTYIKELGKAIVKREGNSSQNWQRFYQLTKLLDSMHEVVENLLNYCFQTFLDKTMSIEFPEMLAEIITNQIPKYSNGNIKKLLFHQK

% Inhibition of Specific Binding (BZD (central)): 5% | % Inhibition of Specific Binding [1]: 3% | % Inhibition of Specific Binding [2]: -10% | % Inhibition of Specific Binding (D2S (h) (human), P14416): -7% | % Inhibition of Specific Binding (ETA (h) (human), P25101): 6% | % Inhibition of Specific Binding (CB2 (h) (human), P34972): -5% | % Inhibition of Specific Binding [3]: 4% | % Inhibition of Specific Binding [4]: 16% | % Inhibition of Specific Binding (A2A (h) (human), P29274): -16% | % Inhibition of Specific Binding (V1a (h) (human), P37288): 1% | % Inhibition of Specific Binding (GR (h) (human), P04150): 0%
B1: Hex-[Cys(tMeBn(DOTA-AET))-Pro-Pro-Thr-Gln-Phe-Cys]-OH (peptide)
peptide: Hex-CPPTQFC-OH
modifications: bridge 1-7; not fully specified (bridges); printed as Hex-[Cys(tMeBn(DOTA-AET))-Pro-Pro-Thr-Gln-Phe-Cys]-OH

B2: Hex-[Cys(tMeBn(DOTA-PP))-Pro-Pro-Thr-Gln-Phe-Cys]-Asp-NH2 (peptide)
peptide: Hex-CPPTQFCD-NH2
modifications: bridge 1-7; not fully specified (bridges); printed as Hex-[Cys(tMeBn(DOTA-PP))-Pro-Pro-Thr-Gln-Phe-Cys]-Asp-NH2
% Inhibition of Specific Binding (BZD (central)): -9% | % Inhibition of Specific Binding [1]: 2% | % Inhibition of Specific Binding [2]: 2% | % Inhibition of Specific Binding (D2S (h) (human), P14416): 15% | % Inhibition of Specific Binding (ETA (h) (human), P25101): -18% | % Inhibition of Specific Binding (CB2 (h) (human), P34972): 2% | % Inhibition of Specific Binding [3]: -2% | % Inhibition of Specific Binding [4]: 24% | % Inhibition of Specific Binding (A2A (h) (human), P29274): -4% | % Inhibition of Specific Binding (V1a (h) (human), P37288): 16% | % Inhibition of Specific Binding (GR (h) (human), P04150): -2%
